Laboratory results from publication PMC6650354.
Like-named read-outs stand apart in the source and are kept apart here.

Legend:
[1] = molecular target: AL-09 H87Y restorative mutant light chain variable domain protein (human) (UniProt P01594); assay: HPLC sedimentation assay
[2] = molecular target: AL-09 H87Y restorative mutant light chain variable domain protein (human) (UniProt P01594); assay: HPLC sedimentation assay; remark: listed apart in the source
[3] = molecular target: AL-12 R65S restorative mutant light chain variable domain protein (human) (UniProt P01594); assay: HPLC sedimentation assay
[4] = molecular target: immunoglobulin light chain κI O18/O8 variable domain (Homo sapiens) (UniProt P01594); settings: cited from earlier work
[5] = molecular target: κI O18/O8 germline (control) light chain variable domain protein (human) (UniProt P01594); assay: HPLC sedimentation assay
[6] = molecular target: κI O18/O8 germline (control) light chain variable domain protein (human) (UniProt P01594); assay: HPLC sedimentation assay; remark: listed apart in the source

Substance: AL-09 H87Y restorative mutant light chain variable domain protein (from UniProt P01594 23-117) (domain or fragment)
- critical concentration (Cr) of fibril growth [1]: 2.4 µM
- critical concentration (Cr) of fibril growth [2]: 2.8 µM

Substance: AL-12 R65S restorative mutant light chain variable domain protein (from UniProt P01594 23-111) (domain or fragment)
- critical concentration (Cr) of fibril growth [3]: 3.4 µM

Substance: immunoglobulin light chain κI O18/O8 variable domain (from UniProt P01594)
- Kd [4]: 217 µM

Substance: κI O18/O8 germline (control) light chain variable domain protein (from UniProt P01594 23-117) (domain or fragment)
- critical concentration (Cr) of fibril growth [5]: 1.2 µM
- critical concentration (Cr) of fibril growth [6]: 3.2 µM
